Reference: publication PMC4678816, “Structural basis for suppression of hypernegative DNA supercoiling by E. coli topoisomerase I”

Assays:
[1] = target: E. coli topoisomerase I (EcTOP1) (Escherichia coli, UniProt P06612 1-865); assay: X-ray crystallography; 1 mM ZnSO4, pH 6.0; 2.9 A; ssDNA 3' end bound by D5, D7, D8, D9 and R189; Footprinting: 40 mM Tris-HCl (pH not stated), 0.1 mg/ml BSA, 5 mM MgCl2, 37 C, 1 h; crystals: 0.125 M ammonium sulfate, 0.1 M MES pH 6.0, 1 mM ZnSO4, 19% PEG MME 5000, 24 C; details: protein: recombinant; tags: N-terminal His6 removed with TEV protease; label: none in crystal; 3' overhang 9 nt on O29; 20 bp duplex
[2] = target: EcTOP1-G116S (Escherichia coli, UniProt P06612 1-865, G116S); assay: DNase I footprinting; 5 mM MgCl2; partial protection of double-stranded region, both strands; Footprinting: 40 mM Tris-HCl (pH not stated), 0.1 mg/ml BSA, 5 mM MgCl2, 37 C, 1 h; crystals: 0.125 M ammonium sulfate, 0.1 M MES pH 6.0, 1 mM ZnSO4, 19% PEG MME 5000, 24 C; details: protein: recombinant; label: 5' 32P on G-strand or T-strand; duplex with 12-nt unpaired bubble

Binder	binding result [1]	binding result [2]
O29-O20 partial duplex (mixed) DNA 1: GCTAAACCTGAAAGATTATGCGATTTGGG DNA 2: CATAATCTTTCAGGTTTAGC	binds	
DNA bubble substrate (G-strand/T-strand) (mixed) DNA 1: GCCCTGAAAGATTATGGAATGCGATTAGTTCAAGAGCGTGAGCG DNA 2: CGCTCACGCTCTTGAAGTAGAGGAAGGACATAATCTTTCAGGGC		binds
